Source: patent US20020150536A1

Assays:
[1] = biological target: αvβ3 integrin (human) (UniProt P06756); test: competition ELISA, displacement of biotinylated fibrinogen (6 nM) from immobilized αvβ3 (FIG. 4B)
[2] = biological target: αvβ3 integrin (human) (UniProt P06756); test: competition ELISA, displacement of biotinylated vitronectin (10 nM) from immobilized αvβ3 (FIG. 4A)

IC50 [1]: 6.3 nM
IC50 [2]: 2.7 nM
Substance: αvβ3-specific monoclonal antibody LM609
